The record followed here is the supplement of paper PMC12042874.

± gives the uncertainty stated by the source.

The data set can be described thus: amyloid nucleation score (Sup35N fusion, yeast selection) (log enrichment); library NNK3; higher = more nucleation; inactive = no reads after selection. The method in brief:
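For the nucleation score, DiMSum gave the log enrichment of output over input reads, centred on the mode score of non-aggregating sequences. Psi-negative yeast expressing Sup35N fused to peptides of 20 random codons were induced with 100 μM copper sulfate for 24 hours and grown 7 days at 30°C on medium lacking adenine and uracil. Input and output plasmid inserts were Illumina-sequenced, and sequences with under 100 input reads were excluded.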
Turning to VCSSINPFQNMTSFKVWIKS, the amyloid nucleation score entry was “inactive”. Next, CRHTLSRHDVTRCNSEVSSL: “inactive”; PASLTRDVTMCFQNRWDPLR: “inactive”; SRFNMFNLS: 0.163 ± 0.34. Next, FFVYVEHRCSYNGRTSDIFY: -0.185 ± 0.51. Regarding SGWKQSGS, the amyloid nucleation score result is “inactive”. Next, TYHWLNRGYRMGSLENRLLK: “inactive”; EWTVNMNSYLLVSVAYGCGS: “inactive”.

As for GLSISFTTDFFLKVLSESAR, the amyloid nucleation score result is “inactive”. The same measure for AAHCYNGVLKGVI: “inactive”; for SRCGSIGGMKG: “inactive”; for FGYSLMLVTACVLRCQSLWS: “inactive”. With VGSLVHLGLGWIRTLLLYGV, the amyloid nucleation score result was “inactive”.

As to CYVFIEDLTDGMSCRMLFSH, the amyloid nucleation score result was “inactive”.

Consider LVNCISIVLFPECNKSLLHR, for which the amyloid nucleation score turned out to be 2.35 ± 0.077. Consider PFRFVKNLCGATG, for which the amyloid nucleation score entry is “inactive”.

On to HCDLGESFTALYSFHAVLML, for which the amyloid nucleation score result is “inactive”. The same measure for TCEWQRTCNPVGMSYKWSRG: “inactive”; for ALMRYVFPKWRDCAAMWDSL: “inactive”. VPPVVSAP came in with an amyloid nucleation score of 1.05 ± 0.12.

Turning to GISMRRNFSLNKCCSAQSLF, the amyloid nucleation score entry is “inactive”.

In the case of WRSKLLM, the amyloid nucleation score result is “inactive”.

As for VMDVEIGSASSLYKRTSTSE, the amyloid nucleation score entry is “inactive”. The same measure for FFEFRSASYWGPSQYRNMCT: “inactive”.

On to MDVARRMFLISYIFIIFVVR, for which the amyloid nucleation score entry is “inactive”. Next, MVQTKMSQFKSFEFARVMWH: “inactive”. As to SNAMMGSRRIGLMGYAVRVL, the amyloid nucleation score entry is “inactive”. Next, LVNGVHLREWVTPRVECGSF: “inactive”; SDGKQQLFKENS: “inactive”; DVMKVMDRINKRGDNSNYVC: “inactive”. The same measure for FFFVMSRRANVIGSLEDRSD: 0.936 ± 0.11; for KKVLN: “inactive”. The same measure for IEQGGI: “inactive”; for FYFDARRSITLSNSNVVKLW: 1.93 ± 0.08. The substance IIRAFDTYVCCKFGNCSVHM came in with an amyloid nucleation score of 2.59 ± 0.052. Next, SPAHGLGFDMKMVVFMFGDR: 1.54 ± 0.12; YTFIIGIKHSTSSFNMSFSM: 0.613 ± 0.25. The same measure for GGKQCTPNDTM: -0.186 ± 0.55; for IYAPRR: “inactive”. The same measure for HVFYIVYSFISLRNHVAYLS: “inactive”; for LRMGVNILLAMGCFSAYPGE: 0.171 ± 0.39.

As for EWQSYYSKQRIGSGPFQLFC, the amyloid nucleation score worked out at 0.179 ± 0.3.

SNCFPLSFWIR showed an amyloid nucleation score of -0.88 ± 1.3. As to SGISCGLGLATGRKYGSGAV, the amyloid nucleation score result is “inactive”.

The substance EYSRMSSNQMVYSLVIFHNL gave an amyloid nucleation score of 0.509 ± 0.33. Next, HQSISGWLVRGLTAGSGAVC: -0.496 ± 0.96. The same measure for NCSGQTGFGPVMSYWTIDVR: -0.022 ± 0.59. Next, IQLCTKIYSITKV: “inactive”; MEVLLVIYSDCERARSDTNI: “inactive”. In the case of VCHLWSLTVYGAVFQHLNFM, the amyloid nucleation score result is “inactive”. The same measure for SVNKAWHSRLIVVLYNRLTG: 0.082 ± 0.18. Next, RMRDRSGMGRTFHHGTQTTV: “inactive”; IAFEVY: “inactive”; DVLGVSSASERAFGFENRAL: “inactive”. The same measure for WNTGETISRRLVVYNFIEMN: 2.22 ± 0.056. FTNNCYHLAMY: the amyloid nucleation score is -0.456 ± 0.74.

On to SNDYCRGCVCLDSGMNVCVA, for which the amyloid nucleation score result was “inactive”. Next, TFLNRIQWSKWILN: “inactive”; YKNEMGTIPCRRVTSNCLSY: “inactive”; ANKSTIGLFMRLPYCPGSN: -0.148 ± 0.96. As for VIFTIHNGT, the amyloid nucleation score result was “inactive”. The same measure for SYYTYVFTIVTPRKTNLWSG: 0.64 ± 0.28.

LAAQIMNSLCRLELSQALSR: the amyloid nucleation score result was “inactive”. For VEEYHNQ, the amyloid nucleation score came to 0.858 ± 0.13.

Regarding RMGIASIYAIVLQPMIRLWL, the amyloid nucleation score result was “inactive”. On to GSVGSRADVFLGCGDEWRQA, for which the amyloid nucleation score entry is “inactive”. The same measure for MMCFTLS: “inactive”; for GIVILLNYHPIRLF: 2.2 ± 0.068. Next, LPHNIVLAKKTLKV: “inactive”; WLGMCPLLTVVLTGIFLTPF: 0.487 ± 0.2; TCSTGAGNFCVCDFRLVRMR: “inactive”. As to CIDSYLMYVFVAQQPGN, the amyloid nucleation score result is “inactive”.

Turning to TMIFMLVI, the amyloid nucleation score result is “inactive”. The same measure for LNNTQFL: “inactive”. For SRVGGISC, the amyloid nucleation score entry is “inactive”.

Take HYLQS: the amyloid nucleation score entry was “inactive”. The same measure for YPNDLTRVFDRDNNLLGTHG: 0.551 ± 0.32. The same measure for PRSVLINLLHRTHVCCRLFS: “inactive”. The same measure for DSVYGMHGKTTFT: “inactive”; for VGLLVMSVGIERTLWE: “inactive”. For CFGCVWLTITTNFPTVLFRG, the amyloid nucleation score entry is “inactive”. Next, QINWTGHLSMSFICFLNSRV: “inactive”; GSSKCRRLCGRVRQYSYWNR: “inactive”. In the case of DNVIYPASYGVVRRNTRHGF, the amyloid nucleation score result is “inactive”. The same measure for YVTGVLDC: “inactive”; for CADFFQDCAHKIFKNNRITG: “inactive”; for LGRKIRFFGYSGWGCMIREY: “inactive”. In the case of VRGIAIACWSQFCNWRICCR, the amyloid nucleation score is -0.231 ± 0.82. Next, STIISWWSTVIYFKLI: “inactive”; ILNMAVGALWGLMIWSVMLF: “inactive”. Turning to LVCGPI, the amyloid nucleation score entry is “inactive”. The same measure for LFMKRLFLSWFSMVVICGAP: 0.362 ± 0.71; for MCDGFVVVNLILFWKVEMI: “inactive”; for VLSVWDHLYLRNSSCAPTYR: -0.641 ± 1.4.

As for LEPDNYTLGGTKSTTTFAHR, the amyloid nucleation score result is “inactive”.

The substance FYSLNSFSFYASRVITDNRV had an amyloid nucleation score of 1.09 ± 0.13. LYSLFVMFLSVKVWFIVFM: the amyloid nucleation score entry is “inactive”. On to QYFFNRKL, for which the amyloid nucleation score entry was “inactive”. The same measure for SDDKGVWLIMAGLCGIWSMY: 2.33 ± 0.082; for STWMNTDYGDTTV: -0.277 ± 0.96; for VWQRAKSSTIGPLIW: “inactive”. Next, DRLYGVSFVDF: “inactive”; LKQDVKTAVFFFGVD: 1.1 ± 0.15; LEVHIFKDPEY: “inactive”. Next, GWNLTHRMSTGSKLLCPLRI: “inactive”; GNFAM: “inactive”; DCFSKRWLHLFANYSSVSTN: “inactive”. On to TVLCRYVAYLVVSANYLDEC, for which the amyloid nucleation score entry was “inactive”.

On to TMLDLGDKYVMLFEQVDSFF, for which the amyloid nucleation score result is “inactive”.

Turning to VVILWGR, the amyloid nucleation score result was “inactive”. The same measure for FFLYSNIFQLS: 2.32 ± 0.092; for TWSACPTLCLD: -0.392 ± 0.98. The same measure for SIFSSCLSPYSFSYIKLLSC: 0.504 ± 0.26.

Regarding MVTRMCYIACLVFRVWAMCR, the amyloid nucleation score result is “inactive”. Next, GGDTPDDRVSNHCLYRHHHV: “inactive”; RFWSMRALR: “inactive”; RMFVSIRLLGTCCSDWSYYE: 1.78 ± 0.085. The same measure for KIIYKGLYEHLIVMLNIINL: “inactive”. Consider ALEAFKRFNLYELGCKGIKV, for which the amyloid nucleation score result is “inactive”. Next, SIGYDCLQSGAFKSLHTMAL: “inactive”; PYARRMWHGVLVRDIGLYTR: “inactive”; TVRGEVVGPSDNREKIQKQW: “inactive”.

For QRIEYA, the amyloid nucleation score result is “inactive”.

Substance ADGWFEIFKGYSAPGAHSVL yielded an amyloid nucleation score of -0.48 ± 1.1. The same measure for CHASEWACYATLFLQT: “inactive”; for TVNHDAIRELTDTSTDIFMS: “inactive”; for VRRKDSNSCVSSHTASQSGW: “inactive”. The same measure for PMKFQVFGVSQGVR: “inactive”; for KLYWNHAQYPNTTVSTVKFS: -0.706 ± 1.4.

Take VWCPRDFFVSFVPCQ: the amyloid nucleation score entry is “inactive”. Next, AAFAREDRCSLLVWYSTCWD: “inactive”; NRISMFLNRT: “inactive”.
